# According to patent US8344120B2, “Nucleic acid molecules encoding rage fusion proteins” (TransTech Pharma, Inc., priority 2006, dated 2013):
# B1: TTP-4000: four domain RAGE fusion protein: human RAGE N-terminal sequence (to position 251) linked to human IgG Fc (γ1) without hinge; SEQ ID NO: 34/56 (protein)
# chain: QNITARIGEPLVLKCKGAPKKPPQRLEWKLNTGRTEAWKVLSPQGGGPWDSVARVLPNGSLFLPAVGIQDEGIFRCQAMNRNGKETKSNYRVRVYQIPGKPEIVDSASELTAGVPNKVGTCVSEGSYPAGTLSWHLDGKPLVPNEKGVSVKEQTRRHPETGLFTLQSELMVTPARGGDPRPTFSCSFSPGLPRHRALRTAPIQPRVWEPVPLEEVQLVVEPEGGAVAPPSVFLFPPKPKDTLMISRTPEVTCVVVDVSHEDPEVKFNWYVDGVEVHNAKTKPREEQYNSTYRVVSVLTVLHQDWLNGKEYKCKVSNKALPAPIEKTISKAKGQPREPQVYTLPPSRDELTKNQVSLTCLVKGFYPSDIAVEWESNGQPENNYKTTPPVLDSDGSFFLYSKLTVDKSRWQQGNVFSCSVMHEALHNHYTQKSLSLSPGK
# Legend:
# [1] = Pharmacokinetic profile of TTP-4000 after IV injection; format: in vivo, monkeys; conditions: single IV bolus 5 mg/kg; once TTP-4000 has saturated its ligands; plasma ELISA
# Description: Following collection, the tubes were placed on wet ice (maximum 30 minutes) until centrifugation under refrigeration (at 2 to 8° C.) at 1500×g for 15 minutes. Each harvested plasma sample was then stored frozen (−70° C.±10° C.) until assayed for RAGE polypeptide using an ELISA at various time-points following the injection, as described in Example 6.
# In FIG. 12 each curve represents a different animal under the same experimental conditions.
# Initially, 50 uL of the RAGE specific monoclonal antibody 1HB1011 at a concentration of 10 ug/mL in 1× PBS pH 7.3 is coated on plates via overnight incubation. When ready for use, plates are washed three times with 300 uL of 1× Imidazole-Tween wash buffer and blocked with 1% BSA. […] The samples are allowed to incubate at room temperature for one hour. After incubation, the plates are plates are washed three times. A Goat Anti-human IgG1 1 (Sigma A3312) AP conjugate in 1×PBS with 1% BSA is added and allowed to incubate at room temperature for 1 hour. The plates are washed three times. Color was elucidated with paranitrophenylphosphate.
# mouse model of AD = assay: APP transgenic mouse model of AD; format: in vivo, mice
# Description: Experiments were performed to evaluate whether TTP-4000 could affect amyloid formation and cognitive dysfunction in a mouse model of AD. The experiments utilized transgenic mice expressing the human Swedish mutant amyloid precursor protein (APP) under the control of the PDGF-B chain promoter. Over time, these mice generate high levels of the RAGE ligand, amyloid beta (Aβ).
# The APP mice (male) used in this experiment were designed by microinjection of the human APP gene (with the Swedish and London mutations) into mouse eggs under the control of the platelet-derived growth factor B (PDGF-B) chain gene promoter. The mice were generated on a C57BL/6 background and were developed by Molecular Therapeutics Inc. Animals were fed ad libitum and maintained by brother sister mating. The mice generated from this construct develop amyloid deposits starting at 6 months of age. Animals were aged for 6 months and then maintained for 90 days and sacrificed for amyloid quantification.
# APP transgenic mice were administered vehicle or TTP4000 every other day [qod (i.p.)] for 90 days starting at 6 months of age. At the end of the experiment, animals were sacrificed and examined for Aβ plaque burden in the brain (i.e., plaque number). A 6-month control APP group was used to determine the baseline of amyloid deposits. In addition, at the end of the study, the animals were subjected to behavioral (Morris water maze) analysis. The investigators were blinded to the study compounds. Samples were given to the mice at 0.25 ml/mouse/every other day.
# For histological examination, the animals were anesthetized with an intraperitoneal injection (IP) of sodium pentobarbital (50 mg/kg). The animals were transcardially perfused with 4° C., phosphate-buffered saline (PBS) followed by 4% paraformaldehyde. The brains were removed and placed in 4% paraformaldehyde over night. The brains were processed to paraffin and embedded. Ten serial 30-μm thick sections through the brain were obtained. Sections were subjected to primary antibody overnight at 4° C. (Aβ peptide antibody) in order to detect the amyloid deposits in the brain of the transgenic animals (Guo et al., J. Neurosci., 22:5900-5909 (2002)). Sections were washed in Tris-buffered saline (TBS) and secondary antibody was added and incubated for 1 hour at room temperature. After washing, the sections were incubated as instructed in the Vector ABC Elite kit (Vector Laboratories) and stained with […] (DAB). The reactions were stopped in water and cover-slipped after treatment with xylene. The amyloid area in each section was determined with a computer-assisted image analysis system, consisting of a Power Macintosh computer equipped with a Quick Capture frame grabber card, Hitachi CCD camera mounted on an Olympus microscope and camera stand. NIH Image Analysis Software, v. 1.55 was used. The images were captured and the total area of amyloid was determined over the ten sections. A single operator blinded to treatment status performed all measurements. Summing the amyloid volumes of the sections and dividing by the total number of sections was done to calculate the amyloid volume.
# For quantitative analysis, an enzyme-linked immunosorbent assay (ELISA) was used to measure the levels of human total Aβ, Aβtotal and Aβ1-42 in the brains of APP transgenic mice (Biosource International, Camarillo, Calif.). Aβtotal and Aβ1-42 were extracted from mouse brains by guanidine hydrochloride and quantified as described by the manufacturer. […]
# [2] = treated for 3 months, qod i.p., versus vehicle and human IgG1
molecule,measurement,setting,value
B1,terminal half-life,[1],greater than 300 hours
same,inflammatory cytokines IL-1 and TNF-α,mouse model of AD; data not shown,can reduce the inflammatory cytokines IL-1 and TNF-α
same,Aβ plaques in the brain,mouse model of AD; [2],fewer Aβ plaques
same,cognitive dysfunction (Morris water maze),mouse model of AD; [2],less cognitive dysfunction
